Laboratory results as given in PMC9514218 (Protein Science : A Publication of the Protein Society, 2022).
Ends that are not written are not given here.

Columns and labels:
[1] = target: T1, SURP1 (res. 48–110) of human SF3A1, R62E mutant (human, UniProt Q15459 48-110, R62E); assay: BLI
T1 sequence: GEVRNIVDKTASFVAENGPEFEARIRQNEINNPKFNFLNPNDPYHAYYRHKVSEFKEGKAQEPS

[2] = target: T2, SURP1 (res. 48–110) of human SF3A1, R62Q mutant (human, UniProt Q15459 48-110, R62Q); assay: BLI
T2 sequence: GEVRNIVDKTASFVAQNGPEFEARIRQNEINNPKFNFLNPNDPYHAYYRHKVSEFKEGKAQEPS

[3] = target: T3, SURP1 (res. 48–110) of human SF3A1, N63E mutant (human, UniProt Q15459 48-110, N63E); assay: BLI
T3 sequence: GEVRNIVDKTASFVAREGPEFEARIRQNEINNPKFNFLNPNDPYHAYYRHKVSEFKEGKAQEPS

[4] = target: T4, SURP1 (res. 48–110) of human SF3A1, K80Q mutant (human, UniProt Q15459 48-110, K80Q); assay: BLI
T4 sequence: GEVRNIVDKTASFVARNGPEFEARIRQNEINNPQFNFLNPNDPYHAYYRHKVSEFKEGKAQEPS

[5] = target: T5, SURP1 (res. 48–110) of human SF3A1, N63Q mutant (human, UniProt Q15459 48-110, N63Q); assay: BLI
T5 sequence: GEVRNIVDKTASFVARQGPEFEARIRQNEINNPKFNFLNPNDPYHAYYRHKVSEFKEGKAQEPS

[6] = target: T6, SURP1 (res. 48–110) of human SF3A1, wild type (human, UniProt Q15459 48-110); assay: BLI
T6 sequence: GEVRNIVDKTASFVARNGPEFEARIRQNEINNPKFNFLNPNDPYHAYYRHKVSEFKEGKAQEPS

[7] = target: T7, SURP1 (res. 48–110) of human SF3A1, K80D mutant (human, UniProt Q15459 48-110, K80D); assay: BLI
T7 sequence: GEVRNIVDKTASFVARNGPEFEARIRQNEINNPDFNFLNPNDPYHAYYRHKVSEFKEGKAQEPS

[8] = target: T6, SURP1 (res. 48–110) of human SF3A1, …; assay: NMR solution structure

A Kd [1] of 393 µM, a Kd [2] of 187 µM and a Kd [3] of 251 µM were found for QRPGDPQSAQDKARMDKEYLSLMAELGEAPVPA (peptide, UniProt Q15637 295-327, looked up, also: biotin (position not given here)) [biotin-tagged SF1 S1BRp (res. 295–327)] in this work. The Kd [4] was 64.2 µM, the Kd [5] was 139 µM and the Kd [6] was 15.2 µM. The Kd [7] was 132 µM.

QRPGDPQSAQDKARMDKEYLSLMAELGEAPVPA (domain or fragment, human, UniProt Q15637 295-327, looked up) [S1BR (res. 295–327) of SF1 as it stands in the chimera]: binds [8].

A Kd [6] of 17.3 µM was found for QRPGDPQSAQDKARMDKEYLSLMAELGEAPVPASVGSTSGP (peptide, UniProt Q15637 295-335, looked up, also: biotin (position not given here)) [biotin-tagged SF1 S1BRp (res. 295–335)] in this work.
